The values below come from publication PMC6208734.

Test [1] has as its target AD-PHF Tau (paired helical filament Tau isolated from Alzheimer's disease brains) (human (endogenous in AD brain)). Nature of the test: SPR; AD-PHF fraction 11 amine-coupled to a CM5 chip (about 500 RU); full-length IgG 1-300 nM as analyte, 180 s injection, 1200 s dissociation; BIAcore T200, 25 °C; HBS-EP+ with additional 150 mM NaCl and 1.25% CM-Dextran; extrinsic affinity; 1:1 binding or bivalent analyte model. (In SPR one partner is held on a chip, and binding of the other changes the refractive index at the surface.)

The target is the same in test [2].

Chain of AD-PHF Tau (paired helical filament Tau isolated from Alzheimer's disease brains) (human (endogenous in AD brain)) (P10636 2-758): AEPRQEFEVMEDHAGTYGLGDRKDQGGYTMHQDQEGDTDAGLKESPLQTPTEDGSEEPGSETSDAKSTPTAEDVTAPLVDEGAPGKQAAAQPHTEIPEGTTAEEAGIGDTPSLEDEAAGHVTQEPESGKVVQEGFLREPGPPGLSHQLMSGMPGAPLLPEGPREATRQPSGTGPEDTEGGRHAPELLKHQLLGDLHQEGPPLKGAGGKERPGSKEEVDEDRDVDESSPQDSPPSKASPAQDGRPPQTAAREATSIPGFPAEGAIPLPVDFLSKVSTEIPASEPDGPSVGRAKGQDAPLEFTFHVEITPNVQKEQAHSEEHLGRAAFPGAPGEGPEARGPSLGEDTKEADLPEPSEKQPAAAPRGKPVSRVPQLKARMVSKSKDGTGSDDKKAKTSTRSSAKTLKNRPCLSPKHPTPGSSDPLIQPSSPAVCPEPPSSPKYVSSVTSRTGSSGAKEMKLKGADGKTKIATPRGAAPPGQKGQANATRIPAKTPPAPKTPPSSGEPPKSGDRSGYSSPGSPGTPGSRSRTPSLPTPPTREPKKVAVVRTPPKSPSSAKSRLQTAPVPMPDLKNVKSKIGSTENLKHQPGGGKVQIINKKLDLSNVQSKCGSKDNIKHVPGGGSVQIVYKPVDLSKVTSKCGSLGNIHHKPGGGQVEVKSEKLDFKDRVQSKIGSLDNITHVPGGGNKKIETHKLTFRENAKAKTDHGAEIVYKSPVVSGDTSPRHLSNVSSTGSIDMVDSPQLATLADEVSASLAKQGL

B1: antibody A (antibody, V domains shown)
VH: EVHLVESGGALVKPGGSLKLSCAASGFSFSKYGMSWVRQTPDKRLEWVATISSSGSRTYYPDSVKGQFTISRDNAKNTLYLQMSSLKSEDTAMYYCSISWDGAMDYWGQGTSVTVSS
VL: DVLMTQTPLSLPVSLGDQASISCKSSQSIVHSNGNTYLEWYLQKPGQSPKLLVYKVSNRFSGVPDRFSGSGSGTDFTLKISRVEAEDLGTYYCFQGSLVPWAFGGGTKLEIK
In test [1], B1 registered a Kd of 0.12 nM, a koff of 2.5e-05 s⁻¹ and a kon of 230000 M⁻¹ s⁻¹.

B2: antibody F (antibody, V domains shown)
VH: EVQLVQSGAEVKKPGESLKISCKGSGYTFSNYWIEWVRQMPGKGLEWMGEILPGSDSIKYEKNFKGQVTISADKSISTAYLQWSSLKASDTAMYYCARRGNYVDDWGQGTLVTVSS
VL: EIVLTQSPGTLSLSPGERATLSCRSSQSLVHSNQNTYLHWYQQKPGQAPRLLIYKVDNRFSGIPDRFSGSGSGTDFTLTISRLEPEDFAVYYCSQSTLVPLTFGGGTKVEIK
In test [1], B2 gave a Kd of 25.8 nM, a koff of 0.00196 s⁻¹ and a kon of 730000 M⁻¹ s⁻¹.

B3: antibody B (antibody, V domains shown)
VH: EVKVEESGGGLVQPGGSMKLSCVVSGFTFSNYWVNWVRQSPEKGLEWVAQIRLKSDNYATHYEESVKGRFTISRDDSKSSVYLQMNNLRAEDSGIYYCTNWEDYWGQGTTLTVSS
VL: DIVLTQSPASLAVSLGQRATISCRASQSVSTSRYSYIHWYQQKPGQPPKLLIKYASNLESGVPARFSGSGSGTDFTLNIHPLEEEDAATYYCHHSWEIPLTFGAGTKLELK
For the molecule B3, the neutralisation of AD-PHF Tau seeding of HEK293 cells expressing P301S Tau (TR-FRET of aggregated Tau), antibody 0.1 to 300 nM; effect only at the highest doses in test [2] is 74%. In test [1], this molecule returned a Kd of 3.1 nM, a koff of 0.000117 s⁻¹ and a kon of 40000 M⁻¹ s⁻¹.

As usually defined, the koff is the rate constant with which the complex falls apart. A higher koff goes with fast dissociation. A word on the kon: it is the rate constant with which the complex forms. A lower kon goes with slow association.
